Test results published in publication PMC9166362, “Early midcell localization of Escherichia coli PBP4 supports the function of peptidoglycan amidases” (PLoS Genetics, 2022).

Key:
[1] = target: PBP4ΔD3 (PBP4 lacking domain 3), His-tagged (E. coli) (UniProt P24228); assay: AUC; sedimentation velocity, 45,000 rpm, 20°C, 25 mM HEPES/NaOH, 150 mM NaCl, pH 7.5, about 0.25 to 1.4 mg/ml; c(s) analysis
[2] = target: EnvC, soluble version without the N-terminal 34 amino acid signal peptide (E. coli) (UniProt P37690); assay: MST; one protein fluorescently labelled (NT-647 dye) at a fixed concentration, two-fold serial dilution of unlabelled ligand over 16 samples; 25 mM HEPES/NaOH, 150 mM NaCl, 0.05% Triton X-100, pH 7.5; Monolith NT.115; apparent KD
[3] = target: LpoA, soluble (LpoAΔ1–27) (E. coli) (UniProt P45464); assay: as above
[4] = target: LpoA^N, N-terminal domain of LpoA (residues G28-T256) (E. coli) (UniProt P45464); assay: as above
[5] = target: PBP4 (penicillin binding protein 4, DD-carboxy/endopeptidase), purified, untagged (E. coli) (UniProt P24228); assay: AUC; sedimentation velocity, 45,000 rpm, 20°C, 25 mM HEPES/NaOH, 150 mM NaCl, pH 7.5, about 0.25 to 1.4 mg/ml; c(s) analysis
[6] = target: PBP4ΔD3 (PBP4 lacking domain 3), His-tagged (E. coli, UniProt P24228 21-477, PBP4Δ173–247 (domain 3)); assay: MST
[7] = target: T1, PBP4 (penicillin binding protein 4, DD-carboxy/endopeptidase), purified, untagged (E. coli, UniProt P24228 61-477); assay: MST
T1 chain: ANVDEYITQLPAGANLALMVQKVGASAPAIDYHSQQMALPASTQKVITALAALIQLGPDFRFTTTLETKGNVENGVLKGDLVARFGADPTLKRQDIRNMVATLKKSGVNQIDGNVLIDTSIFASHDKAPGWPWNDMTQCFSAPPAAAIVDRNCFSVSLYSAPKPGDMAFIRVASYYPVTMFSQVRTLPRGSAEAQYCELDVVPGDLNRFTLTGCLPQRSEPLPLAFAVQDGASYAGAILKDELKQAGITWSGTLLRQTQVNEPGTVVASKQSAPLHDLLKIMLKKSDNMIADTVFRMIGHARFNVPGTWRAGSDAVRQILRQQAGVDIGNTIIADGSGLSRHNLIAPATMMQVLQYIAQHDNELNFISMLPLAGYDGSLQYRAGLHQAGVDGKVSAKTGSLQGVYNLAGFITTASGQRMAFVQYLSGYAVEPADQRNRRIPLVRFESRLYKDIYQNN

[8] = target: T2, EnvC, soluble version without the N-terminal 34 amino acid signal peptide (E. coli, UniProt P37690 35-419); assay: MST; one protein fluorescently labelled (NT-647 dye) at a fixed concentration, two-fold serial dilution of unlabelled ligand over 16 samples; 25 mM HEPES/NaOH, 150 mM NaCl, 0.05% Triton X-100, pH 7.5; Monolith NT.115; apparent KD; conditions: both partners purified
T2 construct: EnvC of E. coli, soluble version without the N-terminal, 34 amino acid long, signal peptide; the text calls it full-length EnvC; In MST fluorescently labelled (Fl-EnvC) in some runs; also called full-length EnvC; Fl-EnvC; source: E. coli BL21(DE3) pET28a-His-EnvC, purified (HisTrap, thrombin, Superdex 200)
T2 sequence (looked up): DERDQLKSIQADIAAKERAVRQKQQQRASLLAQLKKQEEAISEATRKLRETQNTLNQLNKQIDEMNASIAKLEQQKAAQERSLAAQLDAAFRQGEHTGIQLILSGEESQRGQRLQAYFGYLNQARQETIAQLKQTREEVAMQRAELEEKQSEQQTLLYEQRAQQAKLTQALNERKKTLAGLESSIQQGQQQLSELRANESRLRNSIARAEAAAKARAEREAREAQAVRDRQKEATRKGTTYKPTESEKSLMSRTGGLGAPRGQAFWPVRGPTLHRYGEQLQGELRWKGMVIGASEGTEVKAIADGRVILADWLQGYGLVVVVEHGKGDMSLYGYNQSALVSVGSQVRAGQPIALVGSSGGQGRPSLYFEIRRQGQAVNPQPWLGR

[9] = target: T2, EnvC, soluble version without the …; assay: pull-down; Ni-NTA beads; equimolar (1–2 μM) His-tagged and untagged proteins; 10 mM HEPES/NaOH, 10 mM MgCl2, 150 mM NaCl, 0.05% Triton X-100, pH 7.5, 4°C; washes with 30 mM imidazole; SDS-PAGE; His-NlpI also with PBP4 and EnvC together; conditions: both partners purified

Molecule: PBP4ΔD3 (PBP4 lacking domain 3), His-tagged (from UniProt P24228 21-477) (enzyme)
- stoichiometry N [1]: 2
- Kd [2]: > 5900 nM
- Kd [3]: 153 nM
- fold decrease of app. KD against PBP4 [4]: 50 fold

Molecule: PBP4 (penicillin binding protein 4, DD-carboxy/endopeptidase), purified, untagged (from UniProt P24228 61-477) (enzyme)
- stoichiometry N [5]: 2
- Kd [2]: 307 nM
- Kd [3]: 315 nM

B1: PBP1A, purified (full length His-PBP1A) (enzyme)
chain: MKFVKYFLILAVCCILLGAGSIYGLYRYIEPQLPDVATLKDVRLQIPMQIYSADGELIAQYGEKRRIPVTLDQIPPEMVKAFIATEDSRFYEHHGVDPVGIFRAASVALFSGHASQGASTITQQLARNFFLSPERTLMRKIKEVFLAIRIEQLLTKDEILELYLNKIYLGYRAYGVGAAAQVYFGKTVDQLTLNEMAVIAGLPKAPSTFNPLYSMDRAVARRNVVLSRMLDEGYITQQQFDQTRTEAINANYHAPEIAFSAPYLSEMVRQEMYNRYGESAYEDGYRIYTTITRKVQQAAQQAVRNNVLDYDMRHGYRGPANVLWKVGESAWDNNKITDTLKALPTYGPLLPAAVTSANPQQATAMLADGSTVALSMEGVRWARPYRSDTQQGPTPRKVTDVLQTGQQIWVRQVGDAWWLAQVPEVNSALVSINPQNGAVMALVGGFDFNQSKFNRATQALRQVGSNIKPFLYTAAMDKGLTLASMLNDVPISRWDASAGSDWQPKNSPPQYAGPIRLRQGLGQSKNVVMVRAMRAMGVDYAAEYLQRFGFPAQNIVHTESLALGSASFTPMQVARGYAVMANGGFLVDPWFISKIENDQGGVIFEAKPKVACPECDIPVIYGDTQKSNVLENNDVEDVAISREQQNVSVPMPQLEQANQALVAKTGAQEYAPHVINTPLAFLIKSALNTNIFGEPGWQGTGWRAGRDLQRRDIGGKTGTTNSSKDAWFSGYGPGVVTSVWIGFDDHRRNLGHTTASGAIKDQISGYEGGAKSAQPAWDAYMKAVLEGVPEQPLTPPPGIVTVNIDRSTGQLANGGNSREEYFIEGTQPTQQAVHEVGTTIIDNGEAQELF
- Kd [6]: 240 nM
- Kd [7]: 67 nM

B2: LpoA^C, C-terminal domain of LpoA (residues N257-S678) (domain or fragment)
chain: NKIALLLPLNGQAAVFGRTIQQGFEAAKNIGTQPVAAQVAAAPAADVAEQPQPQTVDGVASPAQASVSDLTGEQPAAQPVPVSAPATSTAAVSAPANPSAELKIYDTSSQPLSQILSQVQQDGASIVVGPLLKNNVEELLKSNTPLNVLALNQPENIENRVNICYFALSPEDEARDAARHIRDQGKQAPLVLIPRSSLGDRVANAFAQEWQKLGGGTVLQQKFGSTSELRAGVNGGSGIALTGSPITLRATTDSGMTTNNPTLQTTPTDDQFTNNGGRVDAVYIVATPGEIAFIKPMIAMRNGSQSGATLYASSRSAQGTAGPDFRLEMEGLQYSEIPMLAGGNLPLMQQALSAVNNDYSLARMYAMGVDAWSLANHFSQMRQVQGFEINGNTGSLTANPDCVINRNLSWLQYQQGQVVPVS
- Kd [6]: 315 nM
- Kd [7]: 226 nM

B3: LpoA^N, N-terminal domain of LpoA (residues G28-T256) (domain or fragment)
chain: GTHTPDQSTAYMQGTAQADSAFYLQQMQQSSDDTRINWQLLAIRALVKEGKTGQAVELFNQLPQELNDAQRREKTLLAVEIKLAQKDFAGAQNLLAKITPADLEQNQQARYWQAKIDASQGRPSIDLLRALIAQEPLLGAKEKQQNIDATWQALSSMTQEQANTLVINADENILQGWLDLQRVWFDNRNDPDMMKAGIADWQKRYPNNPGAKMLPTQLVNVKAFKPAST
- Kd [6]: 17 nM
- Kd [7]: 954 nM

B4: NlpI, soluble, as used in microscale thermophoresis (natural protein, E. coli, UniProt P0AFB1 19-294, looked up)
chain: CSNTSWRKSEVLAVPLQPTLQQEVILARMEQILASRALTDDERAQLLYERGVLYDSLGLRALARNDFSQALAIRPDMPEVFNYLGIYLTQAGNFDAAYEAFDSVLELDPTYNYAHLNRGIALYYGGRDKLAQDDLLAFYQDDPNDPFRSLWLYLAEQKLDEKQAKEVLKQHFEKSDKEQWGWNIVEFYLGNISEQTLMERLKADATDNTSLAEHLSETNFYLGKYYLSLGDLDSATALFKLAVANNVHNFVEHRYALLELSLLGQDQDDLAESDQQ
notes: NlpI, outer membrane lipoprotein of E. coli, 'Soluble NlpI construct'; In some MST runs fluorescently labelled (Fl-NlpI); also called Fl-NlpI; source: purified from overexpression strain according to published procedures [55]; (plasmid pET28a-His-NlpI)
- Kd [7]: 177 nM
- binding result [8]: binds

B5: His-NlpI (oligo-histidine tagged soluble NlpI) (natural protein, E. coli, UniProt P0AFB1 19-294, looked up)
chain: B4 chain
notes: NlpI, outer membrane lipoprotein of E. coli, 'Soluble NlpI construct'; Bait on Ni-NTA beads; also called oligohistidine-tagged-NlpI; source: purified from overexpression strain according to published procedures [55]; (plasmid pET28a-His-NlpI); not shown: His, N-terminal, kept
- binding result [9]: binds
